Measurements from IntAct's records for PubMed 18191225.

B1: Caveolin-3 (Mus musculus), P51637 (parent)
chain: MMTEEHTDLEARIIKDIHCKEIDLVNRDPKNINEDIVKVDFEDVIAEPEGTYSFDGVWKVSFTTFTVSKYWCYRLLSTLLGVPLALLWGFLFACISFCHIWAVVPCIKSYLIEIQCISHIYSLCIRTFCNPLFAALGQVCSNIKVVLRREG
partner: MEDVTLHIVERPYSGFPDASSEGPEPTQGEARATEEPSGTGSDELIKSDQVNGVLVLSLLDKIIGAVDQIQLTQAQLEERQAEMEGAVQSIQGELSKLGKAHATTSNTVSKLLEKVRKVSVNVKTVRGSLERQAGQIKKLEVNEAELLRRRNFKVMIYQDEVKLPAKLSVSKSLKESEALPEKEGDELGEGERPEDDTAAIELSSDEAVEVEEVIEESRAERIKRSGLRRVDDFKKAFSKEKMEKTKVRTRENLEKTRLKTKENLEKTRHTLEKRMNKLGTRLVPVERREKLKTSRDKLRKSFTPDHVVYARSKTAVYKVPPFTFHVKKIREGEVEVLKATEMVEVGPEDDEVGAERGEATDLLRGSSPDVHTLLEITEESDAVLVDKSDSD

Variants of: B1
Conditions: with cavn1_mouse Cavin1, O54724

Row | Variant | effect of a mutation on the interaction
1 | P105L | decreasing interaction
